Measured values reported in paper PMC4997346 (2016).
No end group written: not given here.

Experiments:
[1] = target: T1, FVIIa/TF extrinsic tenase complex [E] (Homo sapiens, UniProt P08709); assay: FX activation inhibition kinetics (Lineweaver-Burk secondary plot)
T1 chain 1: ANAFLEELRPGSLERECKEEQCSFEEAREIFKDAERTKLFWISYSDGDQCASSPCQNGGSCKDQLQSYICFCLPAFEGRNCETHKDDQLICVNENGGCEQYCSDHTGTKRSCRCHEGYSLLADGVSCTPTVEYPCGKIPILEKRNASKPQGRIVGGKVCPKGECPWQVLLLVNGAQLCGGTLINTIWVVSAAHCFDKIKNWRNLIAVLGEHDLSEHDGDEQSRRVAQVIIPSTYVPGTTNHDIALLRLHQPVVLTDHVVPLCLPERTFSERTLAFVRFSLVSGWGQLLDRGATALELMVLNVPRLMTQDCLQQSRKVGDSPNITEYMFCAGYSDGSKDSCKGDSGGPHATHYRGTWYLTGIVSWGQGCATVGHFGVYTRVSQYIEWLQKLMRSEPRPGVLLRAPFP
T1 chain 2: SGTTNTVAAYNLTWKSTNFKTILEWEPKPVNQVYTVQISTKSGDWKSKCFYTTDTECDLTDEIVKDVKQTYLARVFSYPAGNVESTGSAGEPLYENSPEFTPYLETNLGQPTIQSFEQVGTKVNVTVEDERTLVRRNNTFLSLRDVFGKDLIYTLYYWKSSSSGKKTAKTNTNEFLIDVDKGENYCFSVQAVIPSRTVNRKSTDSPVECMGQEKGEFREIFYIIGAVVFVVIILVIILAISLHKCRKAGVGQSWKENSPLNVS

[2] = target: intrinsic tenase complex (FIXa/FVIIIa) (Homo sapiens, UniProt P00740); assay: as above
Chain of intrinsic tenase complex (FIXa/FVIIIa) (P00740 47-461, chain 1 of 2): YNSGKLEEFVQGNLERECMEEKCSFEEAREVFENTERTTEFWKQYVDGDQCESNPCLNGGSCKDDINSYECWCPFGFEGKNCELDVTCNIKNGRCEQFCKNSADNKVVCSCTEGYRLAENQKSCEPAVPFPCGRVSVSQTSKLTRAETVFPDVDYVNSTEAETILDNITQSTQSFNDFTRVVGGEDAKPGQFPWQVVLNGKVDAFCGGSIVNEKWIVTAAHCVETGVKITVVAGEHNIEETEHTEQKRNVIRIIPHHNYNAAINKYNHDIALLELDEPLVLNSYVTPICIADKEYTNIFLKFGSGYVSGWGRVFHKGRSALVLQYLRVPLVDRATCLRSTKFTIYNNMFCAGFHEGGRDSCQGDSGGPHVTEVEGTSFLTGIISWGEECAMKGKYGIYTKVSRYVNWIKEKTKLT
Chain of intrinsic tenase complex (FIXa/FVIIIa) (P00451 20-2351, chain 2 of 2, further chain): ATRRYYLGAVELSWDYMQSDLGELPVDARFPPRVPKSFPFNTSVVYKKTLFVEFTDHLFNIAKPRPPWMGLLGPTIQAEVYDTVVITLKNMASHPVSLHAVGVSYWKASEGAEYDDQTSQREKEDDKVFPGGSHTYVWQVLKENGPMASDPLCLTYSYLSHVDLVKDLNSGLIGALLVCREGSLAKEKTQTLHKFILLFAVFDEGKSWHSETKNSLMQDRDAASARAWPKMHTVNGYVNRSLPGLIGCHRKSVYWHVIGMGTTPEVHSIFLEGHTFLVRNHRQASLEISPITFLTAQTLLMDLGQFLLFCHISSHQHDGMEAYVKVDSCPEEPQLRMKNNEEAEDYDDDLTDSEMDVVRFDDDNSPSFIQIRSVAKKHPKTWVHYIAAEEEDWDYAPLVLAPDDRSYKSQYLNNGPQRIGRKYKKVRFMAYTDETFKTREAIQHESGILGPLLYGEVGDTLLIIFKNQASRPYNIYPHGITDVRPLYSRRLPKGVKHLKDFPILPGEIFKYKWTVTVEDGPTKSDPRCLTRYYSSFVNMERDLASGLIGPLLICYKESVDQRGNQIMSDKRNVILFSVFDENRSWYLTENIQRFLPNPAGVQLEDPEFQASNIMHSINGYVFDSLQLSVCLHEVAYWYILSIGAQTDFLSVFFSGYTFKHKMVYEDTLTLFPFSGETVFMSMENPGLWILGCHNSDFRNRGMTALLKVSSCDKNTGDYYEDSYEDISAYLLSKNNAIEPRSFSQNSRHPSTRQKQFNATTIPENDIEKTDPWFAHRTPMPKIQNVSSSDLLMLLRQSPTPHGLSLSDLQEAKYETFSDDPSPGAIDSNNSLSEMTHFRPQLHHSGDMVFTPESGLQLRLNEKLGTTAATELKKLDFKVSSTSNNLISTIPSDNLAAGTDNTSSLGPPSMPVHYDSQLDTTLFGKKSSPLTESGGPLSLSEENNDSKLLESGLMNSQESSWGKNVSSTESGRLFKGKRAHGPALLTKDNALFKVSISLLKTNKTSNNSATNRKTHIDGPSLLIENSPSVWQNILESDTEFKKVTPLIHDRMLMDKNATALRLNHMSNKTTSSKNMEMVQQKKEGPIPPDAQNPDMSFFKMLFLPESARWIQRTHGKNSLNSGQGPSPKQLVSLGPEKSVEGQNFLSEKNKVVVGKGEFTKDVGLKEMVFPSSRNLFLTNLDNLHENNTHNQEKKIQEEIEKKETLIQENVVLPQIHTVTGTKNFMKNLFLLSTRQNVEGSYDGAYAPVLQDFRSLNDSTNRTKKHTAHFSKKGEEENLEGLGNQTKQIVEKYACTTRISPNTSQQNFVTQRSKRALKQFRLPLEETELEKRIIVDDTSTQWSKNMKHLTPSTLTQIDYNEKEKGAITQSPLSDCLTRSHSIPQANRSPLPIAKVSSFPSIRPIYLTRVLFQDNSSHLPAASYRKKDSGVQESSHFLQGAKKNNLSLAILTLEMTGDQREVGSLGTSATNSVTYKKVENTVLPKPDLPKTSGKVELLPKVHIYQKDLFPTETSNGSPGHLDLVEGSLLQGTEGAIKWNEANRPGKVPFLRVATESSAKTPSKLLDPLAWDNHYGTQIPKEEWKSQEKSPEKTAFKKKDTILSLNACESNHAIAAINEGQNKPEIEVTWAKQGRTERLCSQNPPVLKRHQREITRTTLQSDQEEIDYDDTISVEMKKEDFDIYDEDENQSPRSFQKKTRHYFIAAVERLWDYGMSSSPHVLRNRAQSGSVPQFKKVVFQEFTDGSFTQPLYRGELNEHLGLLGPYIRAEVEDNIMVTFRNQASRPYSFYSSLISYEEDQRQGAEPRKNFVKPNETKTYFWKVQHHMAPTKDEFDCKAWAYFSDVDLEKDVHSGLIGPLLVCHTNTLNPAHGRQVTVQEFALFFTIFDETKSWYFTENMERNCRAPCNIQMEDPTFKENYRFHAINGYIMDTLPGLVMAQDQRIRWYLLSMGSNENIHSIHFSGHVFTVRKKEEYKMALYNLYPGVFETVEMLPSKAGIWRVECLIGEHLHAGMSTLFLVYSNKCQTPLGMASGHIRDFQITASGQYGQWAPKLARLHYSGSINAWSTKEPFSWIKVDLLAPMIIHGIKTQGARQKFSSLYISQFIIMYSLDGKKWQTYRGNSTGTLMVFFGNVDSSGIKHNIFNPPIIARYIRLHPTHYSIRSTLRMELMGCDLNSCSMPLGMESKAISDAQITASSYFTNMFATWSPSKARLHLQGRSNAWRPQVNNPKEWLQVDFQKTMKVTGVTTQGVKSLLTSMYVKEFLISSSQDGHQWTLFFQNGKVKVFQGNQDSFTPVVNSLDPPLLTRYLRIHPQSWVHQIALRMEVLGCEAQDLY

[3] = target: T2, FVIIa [E] (Homo sapiens, UniProt P08709); assay: as above
T2 chain 1: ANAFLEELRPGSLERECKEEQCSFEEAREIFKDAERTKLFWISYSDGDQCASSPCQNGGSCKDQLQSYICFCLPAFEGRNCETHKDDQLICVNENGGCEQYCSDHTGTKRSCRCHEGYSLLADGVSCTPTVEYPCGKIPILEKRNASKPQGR
T2 chain 2: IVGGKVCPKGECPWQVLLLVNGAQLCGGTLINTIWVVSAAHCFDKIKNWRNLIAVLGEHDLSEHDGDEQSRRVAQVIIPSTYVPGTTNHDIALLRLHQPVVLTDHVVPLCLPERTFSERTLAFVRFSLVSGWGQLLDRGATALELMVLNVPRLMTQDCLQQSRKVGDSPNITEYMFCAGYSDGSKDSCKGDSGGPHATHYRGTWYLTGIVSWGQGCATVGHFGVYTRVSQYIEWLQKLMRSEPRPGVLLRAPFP

[4] = target: T1, FVIIa/TF extrinsic tenase complex [E]; assay: FIX activation inhibition kinetics (Lineweaver-Burk secondary plot)
[5] = target: FVIIa/TF/FX extrinsic tenase complex [ES] (Homo sapiens, UniProt P08709); assay: FX activation inhibition kinetics (Lineweaver-Burk secondary plot, Ki')
[6] = target: FVIIa/FX complex [ES] (Homo sapiens, UniProt P08709); assay: as above
[7] = target: FVIIa/TF/FIX complex [ES] (Homo sapiens, UniProt P08709); assay: FIX activation inhibition kinetics (Lineweaver-Burk secondary plot, Ki')
[8] = target: T3, FVIIa/sTF complex [E] (Homo sapiens, UniProt P08709); assay: FX activation inhibition kinetics (Lineweaver-Burk secondary plot)
T3 chain 1: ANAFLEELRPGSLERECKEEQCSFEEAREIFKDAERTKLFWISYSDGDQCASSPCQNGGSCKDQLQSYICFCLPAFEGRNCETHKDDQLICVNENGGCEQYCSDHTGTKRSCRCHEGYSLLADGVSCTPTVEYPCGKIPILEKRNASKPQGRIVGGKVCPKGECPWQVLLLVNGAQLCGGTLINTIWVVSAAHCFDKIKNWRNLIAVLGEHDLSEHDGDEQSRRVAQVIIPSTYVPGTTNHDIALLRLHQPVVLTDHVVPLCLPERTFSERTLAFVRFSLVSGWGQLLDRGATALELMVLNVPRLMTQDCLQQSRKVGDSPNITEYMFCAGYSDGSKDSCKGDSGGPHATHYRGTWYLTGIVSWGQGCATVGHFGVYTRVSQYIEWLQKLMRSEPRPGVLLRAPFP
T3 chain 2: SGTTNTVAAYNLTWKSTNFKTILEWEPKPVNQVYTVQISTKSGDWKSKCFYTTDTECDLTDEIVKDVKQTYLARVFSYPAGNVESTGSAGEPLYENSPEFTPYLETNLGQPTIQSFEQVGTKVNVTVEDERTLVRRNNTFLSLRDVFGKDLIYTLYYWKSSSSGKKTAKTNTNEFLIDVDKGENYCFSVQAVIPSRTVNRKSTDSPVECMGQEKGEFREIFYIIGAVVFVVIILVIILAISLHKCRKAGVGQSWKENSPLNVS

[9] = target: FVIIa/sTF/FX complex [ES] (Homo sapiens, UniProt P08709); assay: FX activation inhibition kinetics (Lineweaver-Burk secondary plot, Ki')

B1: exactin (protein)
chain: LECYQKSKVVTCQPEQKFCYSDTTMFFPNHPVYLSGCTFSCTEEGNRRCCTTDKCNR
modifications: disulfide (positions not given here); also: four disulfide bonds, pairing not given here
Q: With B1 as the binder, how does the Ki [1] read?
A: The Ki was 0.154 µM.

Q: And the Ki [2]?
A: The Ki was 1.67 µM.

Q: And the Ki [3]?
A: The Ki was 0.184 µM.

Q: What about the Ki [4] of the same binder?
A: The Ki was 129 µM.

Q: And the Ki [5]?
A: The Ki was 0.0306 µM.

Q: And the Ki [6]?
A: The Ki was 0.103 µM.

Q: What about the Ki [7] of the same binder?
A: Its Ki is 38.7 µM.

B2: exactin (protein)
chain: LECYQKSKVVTCQPEQKFCYSDTTMFFPNHPVYLSGCTFSCTEEGNRRCCTTDKCNR
Q: With B2 as the binder, how does the Ki [8] read?
A: Its Ki is 1250 µM.

Q: And the Ki [9]?
A: Its Ki is 295 µM.
